According to US8889130B2, “Treatment of osteoarthritis and pain” (Abbvie Inc., priority 2011, dated 2014):

Legend:
male DBA-1 mice = experiment: Collagen-induced arthritis mouse model (rheumatoid arthritis); format: in vivo; conditions: therapeutic mode; 1-3 mg/kg intraperitoneally every other day after disease onset
Description: The therapeutic effects of anti-IL-1α, anti-IL-1β, combined anti-IL-1α/anti-IL-1β, and murine IL-1α/β DVD4-Ig, were evaluated in a collagen-induced arthritis mouse model well known in the art. Briefly, male DBA-1 mice were immunized with bovine type II collagen in CFA at the base of the tail. The mice were boosted with Zymosan intraperitoneally (i.p) at day 21. After disease onset at day 24-27, mice were selected and divided into separate groups of 10 mice each. […] To neutralize IL-1, mice were injected every other day with 1-3 mg/kg of anti-IL-1α mAb, anti-IL-1βmAb, combination of anti-IL-1α and anti-IL-1β mAbs, or murine IL-1α/β DVD4-Ig intraperitoneally. Mice were carefully examined three times a week for the visual appearance of arthritis in peripheral joints, and scores for disease activity determined.

male Swiss Webster mice = experiment: Joint instability model (JIM) of osteoarthritis, cartilage degeneration histology; format: in vivo, mouse
Description: The design of study of the in vivo activity of a mIL-1α/β DVD-Ig molecule in the joint instability model (JIM) of osteoarthritis in mice is shown in Table 19. All groups contained 25 mice (n=25), weighing approximately 30 grams (BW=30 g). The study was terminated after 21 days. Two and a half month old, male Swiss Webster mice (25/group/time point), housed 5/cage, were anesthetized with isoflurane anesthesia. Anterior cruciate ligament (ACL) trauma was administered on the right and left knees on day 0 in an attempt to induce OA lesions. Intraperitoneal (ip) treatments with IL-1 inhibitory antibodies IL-1α (9H10) and IL-1β (10G11), alone and in combination, were initiated the day of ACL trauma and continued every 4th day (q4d) for 20 days. The vehicle for the non-treatment control was PBS. Right and left knees were harvested on day 21, and histopathologic alterations were scored and characterized. Data were analyzed using only joints that had proliferative responses indicative of successful instability induction. The proliferative response/instability was scored 0-3, and only unstable joints (scores of 1, 2, or 3) were used in the final analysis. Medial and lateral femoral and tibial cartilage degeneration was scored for severity of cartilage degeneration on a scale 0-5. Four days after the last antibody dose, blood was drawn from all animals from each group for serum harvest. Body weights were recorded weekly. […]
Following 2-3 days in a decalcifying fixative (Surgipath Decalifier, Surgipath Medical Ind., Inc., Richmond Va.), both knee joints were trimmed of extraneous tissue, embedded in the frontal plane and sectioned. […] Slides were examined by a board-certified veterinary pathologist blinded to study group designation, and were scored according to the method below. […]
Medial and lateral femoral and tibial cartilage degeneration were scored for severity of cartilage degeneration using the following system: Depth/extent of chondrocyte and proteoglycan loss with fibrillation: […]
The design of this study was similar to that described above in Example 3.3.1. […] Body weights were recorded weekly. […]

[1] = tested on: zymosan-induced IL-6 production; experiment: Zymosan-induced IL-6 production in joint instability model study; format: in vivo, mouse; conditions: day 21 of JIM; 50 mg/kg zymosan ip, serum 4 hours later; mAbs 6 mg/kg each; DVD-Ig 6 or 12 mg/kg
Description: As a pharmacodynamic readout to determine if anti-IL-1α and anti-IL-1β monoclonal antibodies as well as mIL-1α/β DVD-Ig binding protein were functional and capable of neutralizing IL-1α and IL-1β in vivo, zymosan-induced (IL-1α and IL-1β dependent) production of interleukin 6 (IL-6) was measured in a joint instability model study of OA.
Briefly, on day 21 in the model, zymosan was suspended in PBS vehicle and placed in boiling water for half an hour, then allowed to cool before using. The mice were then injected ip with 50 mg/kg zymosan in suspension (mixed well before injection) in 0.5 ml PBS. The mice were then bled 4 hours after zymosan injection. Serum was collected for IL-6 measurements.

Male SV129 mice = experiment: Destabilization of medial meniscus (DMM) model of osteoarthritis, cartilage degeneration (Chambers scores); format: in vivo, mouse; conditions: for mean sum Chambers scores and mean maximum Chambers scores (cartilage degeneration): Example 3.3.6 (FIG. 7)
Excerpt: (§1) Male SV129 mice weighing approximately 30 grams, housed 5/cage, were anesthetized on Day 0 with ketamine/xylazine cocktail, administered intraperitoneally (ip), and then the medial collateral ligament was exposed by blunt dissection, and transected to reflect the meniscus toward the femur. The joint space was closed with 8-0 vicryl suture. The skin was closed with wound glue. For sham surgeries, a vertical skin incision was made over the medial aspect of the knee and the joint capsule was opened. The capsule was closed with 8-0 vicryl suture and the skin was closed with wound glue. Groups of animals were then treated with intraperitoneal (ip) injections of antibody or vehicle according to the study design table below. Two sex-matched, age-matched, and strain-matched naïve mice were also included in the study. Animals were euthanized after 8 weeks of treatment, and knee joints were harvested in 10% neutral buffered formalin.
Formalin-fixed samples were decalcified, and specimens were sectioned in the frontal plane into 15 step sections each. Each section was approximately 6 μm thick, and step sections were separated by 70 μm. All slides were stained with toluidine blue (T. Blue). Slides were assessed according to the Chambers method (Chambers et al. (2001) Arthritis Rheum 44:1455-65) for cartilage degeneration (see below) by a board-certified veterinary pathologist. Each of the four cartilage surfaces, the medial femoral condyle (MFC), the medial tibial plateau (MTP), the lateral femoral condyle (LFC), and the lateral tibial plateau (LTP), was scored from 0-6 according to the scale in the table below.
as §1, with “8-0 vicryl suture, and the” for “8-0 vicryl suture and the”, “injections of anti-mIL-1α monoclonal antibody, anti-mIL-1β (alone or in combination), mIL-1α/βDVD-Ig binding protein, or vehicle” for “injections of antibody or vehicle”, “design table below (Table 24). Animals were” for “design table below. Two sex-matched, age-matched, and strain-matched naïve mice were also included in the study. Animals were”, “weeks of treatment and knee” for “weeks of treatment, and knee”
Male SV129 mice weighing approximately 30 grams had the medial collateral ligament exposed by blunt dissection, and transected to reflect the meniscus toward the femur. The joint space was closed with 8-0 vicryl suture. The skin was closed with wound glue. For sham surgeries, a vertical skin incision was made over the medial aspect of the knee and the joint capsule was opened. The capsule was closed with 8-0 vicryl suture, and the skin was closed with wound glue. Groups of animals were then treated per os (po) or via intraperitoneal (ip) injections of vehicle or treatments according to the study design table below. Three sex-matched, age-matched, and strain-matched naïve mice were also included in the study. Animals were euthanized after 4 weeks of treatment, and knee joints were harvested in 10% neutral buffered formalin.

B1: mIL-1α/βDVD-Ig: mouse anti-mouse DVD-Ig, V(anti-mIL-1β 10G11)-linker-V(anti-mIL-1α 9H10)-murine constant region (Cγ2a and Cκ) (antibody)
heavy: EVQLQQSGPELVKPGTSVKMSCKTSGYTFTSYVMHWVKQKPGQGLEWIGYIIPYNDNTKYNEKFKGKATLTSDKSSSTAYMELSSLTSEDSAVYYCARRNEYYGSSFFDYWGQGTTLTVSSAKTTAPSVYPLAPQVILKESGPGILQPSQTLSLTCSFSGFSLSTYGTAVNWIRQPSGKGLEWLAQIGSDDRKLYNPFLKSRITLSEDTSNSQVFLKITSVDTEDSATYYCANGVMEYWGLGTSVTVSSAKTTAPSVYPLAPVCGDTTGSSVTLGCLVKGYFPEPVTLTWNSGSLSSGVHTFPAVLQSDLYTLSSSVTVTSSTWPSQSITCNVAHPASSTKVDKKIEPRGPTIKPCPPCKCPAPNLLGGPSVFIFPPKIKDVLMISLSPIVTCVVVDVSEDDPDVQISWFVNNVEVHTAQTQTHREDYNSTLRVVSALPIQHQDWMSGKEFKCKVNNKDLPAPIERTISKPKGSVRAPQVYVLPPPEEEMTKKQVTLTCMVTDFMPEDIYVEWTNNGKTELNYKNTEPVLDSDGSYFMYSKLRVEKKNWVERNSYSCSVVHEGLHNHHTTKSFSRTPGK
light: DIQMTQSPASLSASVGETVTITCRGSGILHNYLVWYQQKQGKSPQLLVYSAKILADGVPSRFSGSGSGTQYSLKINSLQPEDFGSYYCQHFWSTPFTFGSGTKLEIKRADAAPTVSIFPPSIVMTQTPKFLLVSAGDRVTITCKASQSVNHDVAWYQQMPGQSPKLLIYFASNRYTGVPDRFTGSGYGTDFTFTISTVQAEDLAVYFCQQDYSSPYTFGGGTKLEIKRADAAPTVSIFPPSSEQLTSGGASVVCFLNNFYPKDINVKWKIDGSERQNGVLNSWTDQDSKDSTYSMSSTLTLTKDEYERHNSYTCEATHKTSTSPIVKSFNRNEC
- reduction in mean arthritis score compared to control group (male DBA-1 mice): 47%
- cartilage degeneration (male Swiss Webster mice; 3 mg/kg DVD-Ig binding protein): had not effect on cartilage degeneration
- progression of osteoarthritis (cartilage degeneration scores, histopathological parameters) (male Swiss Webster mice; Example 3.3.2 (FIG. 3), DVD-Ig 6 or 12 mg/kg ip three times weekly, mAbs 6 mg/kg each Q4D, day 21): significantly inhibited the progression of osteoarthritis
- zymosan-induced IL-6 production [1]: significantly neutralized zymosan-induced IL-6 production
- cartilage degeneration (total sum score) (Male SV129 mice; Example 3.3.5 (FIG. 6), 8 weeks of treatment ip, 6 mg/kg): significantly reduced cartilage degeneration
- mean sum Chambers scores and mean maximum Chambers scores (cartilage degeneration) (Male SV129 mice; 8 weeks, DVD-Ig at 1.5 mg/kg (excepted from the significant reduction)): except for IL-1α/β DVD at 1.5 mg/kg
- mean sum Chambers scores and mean maximum Chambers scores (cartilage degeneration) (Male SV129 mice; 8 weeks, DVD-Ig at 3 and 6 mg/kg): significantly reduced
- dose effect for mean sum Chambers scores (Male SV129 mice; Example 3.3.6, 8 weeks, DVD-Ig 1.5, 3, 6 mg/kg): statistically significant dose effect
